Test results as given in article PMC12828403.

Target: polyketide synthase 16 (Pks16) (Dictyostelium discoideum (endogenous in AX2-214 cells)) (UniProt Q869W9)
Assay: cryo-EM structure; shotgun EM of endogenous assemblies in a heterogeneous pool of SEC and mixed-bed IEX fractions of D. discoideum lysate; 50 mM Hepes pH 7.4, 100 mM NaCl, 3 mM MgSO4, 0.1 mM EGTA, 1 mM DTT, 2% glycerol; 200 kV Glacios; proteins identified by MS of the same sample; AlphaFold 3 models fitted into the maps

stoichiometry N: 2
Substance: polyketide synthase 16 (Pks16), Q869W9 1-2603
